B3: TECD-Fc (extracellular domain of TMEFF2 fused to the Fc portion of human immunoglobulin gamma at the carboxy-terminus) (Fc fusion)
chain: FPTSLSDCQTPTGWNCSGYDDRENDLFLCDTNTCKFDGECLRIGDTVTCVCQFKCNNDYVPVCGSNGESYQNECYLRQAACKQQSEILVVSEGSCATDAGSGSGDGVHEGSGETSQKETSTCDICQFGAECDEDAEDVWCVCNIDCSQTNFNPLCASDGKSYDNACQIKEASCQKQEKIEVMSLGRCQDNTTTTTKSEDGHYARTDYAENANKLEESAREHHIPCPEHYNGFCMHGKCEHSINMQEPSCRCDAGYTGQHCEKK
notes: also called TECD-hFc; Fc-tagged TECD; not shown: subc
B4: TECD-FLAG (extracellular domain of TMEFF2 fused to a FLAG tag at the carboxy-terminus) (other)
chain: FPTSLSDCQTPTGWNCSGYDDRENDLFLCDTNTCKFDGECLRIGDTVTCVCQFKCNNDYVPVCGSNGESYQNECYLRQAACKQQSEILVVSEGSCATDAGSGSGDGVHEGSGETSQKETSTCDICQFGAECDEDAEDVWCVCNIDCSQTNFNPLCASDGKSYDNACQIKEASCQKQEKIEVMSLGRCQDNTTTTTKSEDGHYARTDYAENANKLEESAREHHIPCPEHYNGFCMHGKCEHSINMQEPSCRCDAGYTGQHCEKKWRADYKDDDDK
notes: Expressed in mammalian cells, purified from supernatant; also called FLAG-tagged TECD; TMEFF2-ECD

In assay [1] the target is B3. The assay can be described thus: ELISA, PDGF coat, anti-human Fc-HRP detection. The protocol: For the PDGF coat format, plates were coated with 1 μg/ml PDGF-AA, PDGF-AB, PDGF-BB, PDGF-CC, or PDGF-DD. Serially diluted TECD-Fc was added to the plates. Bound TECD-Fc was detected using horseradish peroxidase conjugated goat anti-human Fc (Jackson ImmunoResearch, West Grove, Pa.).
(§1) To confirm that the binding observed is indeed due to the interaction between PDGF-AA and TMEFF2-ECD, we then immobilized the PDGF ligands on the plates, and applied the TMEFF2-ECD fused to a different tag, TECD-Fc, as an analyte.
In general terms: ELISA stands for enzyme-linked immunosorbent assay.

The target in assay [2] is T1, recombinant human soluble PDGF receptor α extracellular domain (PDGF sRα) (human, UniProt P16234 24-528, biotinylated using biotin-X-NHS in the ELISAs (sRα-bio); sites not stated).
T1 construct: extracellular domain; also called sRα-bio; soluble PDGFRα extracellular domain
Kind of assay: ELISA, PDGF coat, sRα-bio, streptavidin-HRP detection (FIG. 9B). On the procedure:
FIG. 9 TECD-Fc competes with PDGF sRα for PDGF-AA binding. (A) PDGF-AA, but not AB, BB, CC or DD, binds to TECD-Fc. TECD-Fc was applied to wells coated with recombinant human PDGF-AA, AB, BB, CC or DD and detected with HRP-conjugated anti-human Fcγ. (B) sRα binds to all three recombinant human PDGF: AA, AB and BB. Biotinylated recombinant sRα (sRα-bio) was applied to wells coated with recombinant human PDGF-AA, AB, BB, CC or DD and detected with streptavidin-HRP. (C) 10 ng/ml TECD-Fc was mixed with increasing concentrations of sRα-bio and applied to PDGF-AA coated wells. Binding between sRα and PDGF-AA was detected using streptavidin-HRP.
as §1

For assay [3], the target named is T2, recombinant human PDGF-AA (human, UniProt P04085 87-211, limits assumed).
T2 construct: Bought homodimer
Kind of assay: co-immunoprecipitation with anti-gD mAb from transfected 293 cells, anti-PDGF-A blot. On the procedure:
For binding of PDGF ligands to membrane-bound TMEFF2 proteins, 293 cells were transfected with the various TMEFF2 constructs and changed to fresh growth medium containing 5 μg/ml PDGF-AA or AB 48 hours after transfection. After 1 hour of incubation unbound PDGF ligands were washed away with ice cold PBS and cells were lysed in lysis buffer containing 50 mM Tris pH 8.0, 150 mM NaCl, 1 mM EDTA, 1% NP-40, and protease and phosphatase inhibitors, pre-cleared with protein G SEPHAROSE, and immunoprecipitated with anti-TMEFF2, anti-PDGF, or anti-gD antibodies. The immune complexes were dissociated with SDS sample buffer with (reducing condition) or without (non-reducing condition) β-mercaptoethanol and resolved by 4-20% Tris-Glycine SDS PAGE, transferred to nitrocellulose membranes, and detected with the indicated antibodies using enhanced chemiluminescence.
TMEFF2 contains 2 FS modules and an EGF-like domain. To dissect which domain(s) of TMEFF2 is/are involved in its interaction with PDGF-AA, Herpes simplex type 1 glycoprotein D (gD)-epitope tagged deletion mutants of TMEFF2 were made and examined for their ability to bind PDGF-AA when expressed on the surface of 293 cells (FIG. 4). As expected, PDGF-AA co-immunoprecipitated with gD-tagged full-length TMEFF2 by an anti gD monoclonal antibody. […]

The target of assay [4] is B4. The assay can be described thus: ELISA, TECD-FLAG coat, anti-human Fc-HRP detection. On the procedure:
(§2) For the TMEFF2 coat format, MaxiSorp 96-well microwell plates (Thermo Scientific Nunc, Roskilde, Denmark) were coated with 1 μg/ml TECD-FLAG in 50 mM carbonate buffer, pH 9.6, overnight at 4° C. Plates were washed with PBS, pH 7.4 containing 0.05% polysorbate 20 and blocked with 0.5% bovine serum albumin (BSA), 15 parts per million Proclin 300 in phosphate buffered saline (PBS), pH 7.4 for 1 hour at room temperature. Serially diluted PDGF-AA, PDGF-AB or PDGF-BB in PBS containing 0.5% BSA, 0.05% polysorbate 20, and 15 parts per million Proclin 300 were added to the plates. After a 2-hour incubation, PDGF bound to the plates was detected by incubating biotinylated goat anti-human PDGF-AA or PDGF-AB or PDGF-BB in the wells for 1 hour, followed by horseradish peroxidase conjugated streptavidin (GE Healthcare, Piscataway, N.J.) for 30 min. Bound Fc-fusion protein was detected by adding goat anti-hman Fc-HRP (Jackson ImmunoResearch, West Grove, Pa.). After a final wash, the substrate 3,3′,5,5′-tetramethyl benzidine (Kirkegaard & Perry Laboratories) was added to plates and the reaction was stopped by adding 1 M phosphoric acid. Plates were washed with PBS, pH 7.4, containing 0.05% Tween 20, between steps and all incubation steps were performed at room temperature on an orbital shaker. Absorbance was read at 450 nm on a multiskan Ascent reader (Thermo Scientific, Hudson, N.H.). The titration curves were fitted using a four-parameter nonlinear regression curve-fitting program (KaleidaGraph, Synergy software, Reading, Pa.).
(§3) For testing binding of Fc-fusion proteins or his-tagged proteins to TECD-Flag coated on the plate, horseradish peroxidase conjugated goat anti-human Fc (Jackson ImmunoResearch, West Grove, Pa.) or biotinylated anti-His (Penta-His, Qiagen, Valencia, Calif.) followed by horseradish peroxidase conjugated streptavidin was used for detection. For testing TECD-Flag coat, serially diluted mouse anti-Flag (Sigma, St. Louis, Mo.) was added to the plates followed by horseradish peroxidase conjugated goat anti-mouse Fc (Jackson ImmunoResearch). Serially diluted PDGF-AA was also added to wells coated with goat anti-PDGF for comparison to wells coated with 1 μg/ml TECD-Flag. Bound PDGF-AA was detected as described above.

Assay [5] addresses T3, HER3 (human EGF-like receptor 3) ECD fused to hFcγ (human, UniProt P21860 20-643).
T3 construct: extracellular domain; not shown: human Fc gamma
The assay can be described thus: ELISA, TECD-FLAG coat, anti-human Fc-HRP detection. On the procedure: as §2, §3

The target of assay [6] is T4, HER4 (human EGF-like receptor 4) ECD fused to hFcγ (human, UniProt Q15303 26-651).
T4 construct: extracellular domain; not shown: human Fc gamma
T4 sequence (looked up): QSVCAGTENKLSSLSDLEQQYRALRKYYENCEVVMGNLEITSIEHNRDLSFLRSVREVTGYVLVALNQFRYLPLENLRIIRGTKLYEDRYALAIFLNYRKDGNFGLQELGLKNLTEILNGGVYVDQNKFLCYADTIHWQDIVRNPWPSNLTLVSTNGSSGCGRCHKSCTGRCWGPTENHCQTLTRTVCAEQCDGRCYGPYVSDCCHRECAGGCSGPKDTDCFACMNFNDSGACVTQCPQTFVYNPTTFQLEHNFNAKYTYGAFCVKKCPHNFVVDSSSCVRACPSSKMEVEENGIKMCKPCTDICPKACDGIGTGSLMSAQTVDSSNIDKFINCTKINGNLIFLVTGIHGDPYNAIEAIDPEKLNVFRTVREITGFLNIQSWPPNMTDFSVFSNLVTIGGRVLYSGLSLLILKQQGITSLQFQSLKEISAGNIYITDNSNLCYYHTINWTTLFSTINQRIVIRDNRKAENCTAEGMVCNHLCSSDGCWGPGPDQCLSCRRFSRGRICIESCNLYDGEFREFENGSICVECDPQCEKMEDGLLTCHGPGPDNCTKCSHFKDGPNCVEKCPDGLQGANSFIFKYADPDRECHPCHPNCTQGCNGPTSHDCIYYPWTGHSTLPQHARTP
Kind of assay: ELISA, TECD-FLAG coat, anti-human Fc-HRP detection. The protocol:
as §2, §3

Assay [7] addresses T5, HER2 (human EGF-like receptor 2) ECD fused to hFcγ (human, UniProt P04626 23-652).
T5 construct: extracellular domain; not shown: human Fc gamma
The assay can be described thus: ELISA, TECD-FLAG coat, anti-human Fc-HRP detection. On the procedure: as §2, §3

The target of assay [8] is T6, EGFR (human epithelial growth factor receptor) ECD fused to hFcγ (human, UniProt P00533 25-645).
T6 construct: extracellular domain; not shown: human Fc gamma
Kind of assay: ELISA, TECD-FLAG coat, anti-human Fc-HRP detection. The protocol: as §2, §3

T3 sequence (P21860 20-643): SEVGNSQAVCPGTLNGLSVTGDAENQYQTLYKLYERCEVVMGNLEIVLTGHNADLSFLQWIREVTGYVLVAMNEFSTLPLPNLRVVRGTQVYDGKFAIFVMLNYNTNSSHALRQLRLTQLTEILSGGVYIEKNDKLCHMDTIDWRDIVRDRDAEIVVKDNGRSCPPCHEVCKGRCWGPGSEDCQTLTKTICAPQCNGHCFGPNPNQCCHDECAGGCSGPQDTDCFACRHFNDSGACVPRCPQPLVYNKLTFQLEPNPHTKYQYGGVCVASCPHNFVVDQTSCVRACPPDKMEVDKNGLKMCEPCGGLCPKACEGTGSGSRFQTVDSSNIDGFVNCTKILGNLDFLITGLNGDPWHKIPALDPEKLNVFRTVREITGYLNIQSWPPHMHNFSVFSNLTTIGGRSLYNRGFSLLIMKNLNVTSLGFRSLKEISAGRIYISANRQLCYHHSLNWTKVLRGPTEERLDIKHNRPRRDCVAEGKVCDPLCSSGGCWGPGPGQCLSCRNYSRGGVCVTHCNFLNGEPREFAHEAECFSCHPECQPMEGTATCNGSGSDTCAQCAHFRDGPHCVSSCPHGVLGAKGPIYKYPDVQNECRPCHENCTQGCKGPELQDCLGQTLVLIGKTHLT
T1 sequence (P16234 24-528): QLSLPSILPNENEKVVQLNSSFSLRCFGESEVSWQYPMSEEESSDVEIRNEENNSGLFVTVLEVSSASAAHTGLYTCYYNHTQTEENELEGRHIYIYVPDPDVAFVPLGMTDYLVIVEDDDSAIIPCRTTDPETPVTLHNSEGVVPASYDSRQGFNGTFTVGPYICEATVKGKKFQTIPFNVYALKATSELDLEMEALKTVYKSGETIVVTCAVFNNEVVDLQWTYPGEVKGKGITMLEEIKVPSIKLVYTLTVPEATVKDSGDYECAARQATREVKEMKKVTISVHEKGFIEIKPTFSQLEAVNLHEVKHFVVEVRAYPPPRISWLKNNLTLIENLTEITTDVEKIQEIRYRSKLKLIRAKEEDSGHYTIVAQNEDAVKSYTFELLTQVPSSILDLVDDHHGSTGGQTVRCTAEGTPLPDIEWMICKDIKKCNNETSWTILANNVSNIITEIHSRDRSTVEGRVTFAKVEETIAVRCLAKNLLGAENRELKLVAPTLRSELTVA

B1: recombinant human PDGF-BB (ligand, UniProt P01127 82-190, looked up)
chain: SLGSLTIAEPAMIAECKTRTEVFEISRRLIDRTNANFLVWPPCVEVQRCSGCCNNRNVQCRPTQVQLRPVQVRKIEIVRKKPIFKKATVTLEDHLACKCETVAAARPVT
notes: Bought homodimer
Take B1: the binding result in assay [1] is “no binding”; in assay [2], “binds”.

B2: gD-TMEFF2-ΔFS I (gD-tagged TMEFF2 lacking the N-terminal follistatin module FS I) on 293 cells (receptor)
chain: KYALADASLKMADPNRFRGKDLPVLSGRCDICQFGAECDEDAEDVWCVCNIDCSQTNFNPLCASDGKSYDNACQIKEASCQKQEKIEVMSLGRCQDNTTTTTKSEDGHYARTDYAENANKLEESAREHHIPCPEHYNGFCMHGKCEHSINMQEPSCRCDAGYTGQHCEKKDYSVLYVVPGPVRFQYVLIAAVIGTIQIAVICVVVLCITRKCPRSNRIHRQKQNTGHYSSDNTTRASTRLI
notes: Deletion mutant; The true chain lacks the region up to and including FS I
Take B2: the binding result in assay [3] is given as “no binding (tested: 5 µg/ml)”.
Turning to B3, the binding result in assay [4] is recorded as “no binding”.
On to B4, for which the binding result in assay [5], in assay [6], in assay [7] and in assay [8] was “no binding” each time.

B5: recombinant human PDGF-CC (ligand, UniProt Q9NRA1 235-345, looked up)
chain: VVDLNLLTEEVRLYSCTPRNFSVSIREELKRTDTIFWPGCLLVKRCGGNCACCLHNCNECQCVPSKVTKKYHEVLQLRPKTGVRGLHKSLTDVALEHHEECDCVCRGSTGG
notes: Bought homodimer
In the case of B5, the binding result in assay [1] is “no binding”.

For the origin of these results see patent publication US20110159588A1 (published 2011).
